Test in all cases: cell-based or functional assay
In assay [1] the target is human TSH receptor (full length, wild type) expressed on CHO cells (human) (UniProt P16473).
Assay [2] deals with TSHR with Lys250 mutated to Ala (expressed in CHO cells) (human) (UniProt P16473).
In assay [3] the target is wild type TSHR expressed in CHO cells (human) (UniProt P16473).
Assay [4] concerns the target human TSHR with Glu251 mutated to Ala expressed in CHO cells (human) (UniProt P16473).
Assay [5] has as its target wild type TSHR expressed in CHO cells (human) (UniProt P16473). The source holds these as a separate data set.
For assay [6], the target named is human TSH receptor (full length, wild type) expressed in CHO cells (human) (UniProt P16473).

In assay [1], “native human TSH (from UniProt P01215 25-116; P01222 21-132) (ligand)” had a Cyclic AMP concentration in hypotonic medium; 100 ng/mL hTSH alone of 56.8 pmol/mL and a Cyclic AMP concentration in isotonic medium; 100 ng/mL hTSH alone of 42.3 pmol/mL.

Regarding “5B3 IgG (human monoclonal antibody to GAD, negative control for K1-70)”, in assay [2], the % inhibition of TSH stimulation; 5B3 10 µg/mL; Experiment 1 came to 0%, the % inhibition of TSH stimulation; 5B3 10 µg/mL; Experiment 2 was determined as 14%, the % inhibition of TSH stimulation; 5B3 100 µg/mL; Experiment 1 is 0% and the % inhibition of TSH stimulation; 5B3 100 µg/mL; Experiment 2 turned out to be 1%. Moreover, in assay [2], the Cyclic AMP produced; 5B3 10 µg/mL + TSH 3 ng/mL; Experiment 1 was found to be 67.7 pmol/mL, the Cyclic AMP produced; 5B3 10 µg/mL + TSH 3 ng/mL; Experiment 2 is 47.1 pmol/mL, the Cyclic AMP produced; 5B3 100 µg/mL + TSH 3 ng/mL; Experiment 1 was 66.1 pmol/mL and the Cyclic AMP produced; 5B3 100 µg/mL + TSH 3 ng/mL; Experiment 2 amounted to 54.7 pmol/mL. In assay [2], the Mutated/wild type (%) of cyclic AMP produced; 5B3 10 µg/mL + TSH 3 ng/mL; Experiment 1 came out at 87%, the Mutated/wild type (%) of cyclic AMP produced; 5B3 10 µg/mL + TSH 3 ng/mL; Experiment 2 was 52%, the Mutated/wild type (%) of cyclic AMP produced; 5B3 100 µg/mL + TSH 3 ng/mL; Experiment 1 worked out at 83% and the Mutated/wild type (%) of cyclic AMP produced; 5B3 100 µg/mL + TSH 3 ng/mL; Experiment 2 is 62%. Further, in assay [3], the % inhibition of TSH stimulation; 5B3 10 µg/mL; Experiment 1 is 0.1%, the % inhibition of TSH stimulation; 5B3 10 µg/mL; Experiment 2 came to 0%, the % inhibition of TSH stimulation; 5B3 100 µg/mL; Experiment 1 came out at 0% and the % inhibition of TSH stimulation; 5B3 100 µg/mL; Experiment 2 was found to be 0%. Further, in assay [3], the Cyclic AMP produced; 5B3 10 µg/mL + TSH 3 ng/mL; Experiment 1 was 77.8 pmol/mL, the Cyclic AMP produced; 5B3 10 µg/mL + TSH 3 ng/mL; Experiment 2 amounted to 90.6 pmol/mL, the Cyclic AMP produced; 5B3 100 µg/mL + TSH 3 ng/mL; Experiment 1 worked out at 79.9 pmol/mL and the Cyclic AMP produced; 5B3 100 µg/mL + TSH 3 ng/mL; Experiment 2 was 87.5 pmol/mL. Further, in assay [4], the % inhibition of TSH stimulation; 5B3 10 µg/mL was determined as 10%, the % inhibition of TSH stimulation; 5B3 100 µg/mL was 0%, the Cyclic AMP produced; 5B3 10 µg/mL + TSH 3 ng/mL is 68.7 pmol/mL and the Cyclic AMP produced; 5B3 100 µg/mL + TSH 3 ng/mL worked out at 76.7 pmol/mL. Moreover, in assay [4], the Mutated/wild type (%) of cyclic AMP produced; 5B3 10 µg/mL + TSH 3 ng/mL was found to be 74% and the Mutated/wild type (%) of cyclic AMP produced; 5B3 100 µg/mL + TSH 3 ng/mL came out at 89%. For the same substance, in assay [5], the % inhibition of TSH stimulation; 5B3 10 µg/mL amounted to 5%, the % inhibition of TSH stimulation; 5B3 100 µg/mL turned out to be 11%, the Cyclic AMP produced; 5B3 10 µg/mL + TSH 3 ng/mL was 92.9 pmol/mL and the Cyclic AMP produced; 5B3 100 µg/mL + TSH 3 ng/mL was found to be 86.3 pmol/mL.

Regarding “recombinant human TSH (from UniProt P01215 25-116; P01222 21-138) (ligand)”, in assay [1], the Cyclic AMP concentration in hypotonic medium; 100 ng/mL rhTSH alone was 37.8 pmol/mL and the Cyclic AMP concentration in isotonic medium; 100 ng/mL rhTSH alone amounted to 29.9 pmol/mL.

As to “NIBSC reference preparation 90/672 (Thyroid Stimulating Autoantibody reference preparation)”, in assay [6], the Cyclic AMP concentration at 0.1 units/L NIBSC 90/672 was 5 pmol/mL, the Cyclic AMP concentration at 0.3 units/L NIBSC 90/672 worked out at 12.5 pmol/mL and the Cyclic AMP concentration at 1 unit/L NIBSC 90/672 came to 27.4 pmol/mL.

The values are drawn from patent US20110300138A1 (published 2011).
